Results: US20250332230A1

What was measured:
[1] = target: Human Alkaline Phosphatase/ALPI Protein (His Tag) (Sino Biological Cat. No. 13225-H08H) (human) (UniProt P09923); experiment: sandwich ECL (MSD), capture AbD54140ad; LC02, HIAP nominal 1.500 ng/mL
[2] = target: Human Alkaline Phosphatase/ALPI Protein (His Tag) (Sino Biological Cat. No. 13225-H08H) (human) (UniProt P09923); experiment: sandwich ECL (MSD), capture AbD54140ad; ST07, HIAP nominal 4.000 ng/mL
[3] = target: Human Alkaline Phosphatase/ALPI Protein (His Tag) (Sino Biological Cat. No. 13225-H08H) (human) (UniProt P09923); experiment: sandwich ECL (MSD), capture AbD54140ad; ST04, HIAP nominal 32.00 ng/mL
[4] = target: Human Alkaline Phosphatase/ALPI Protein (His Tag) (Sino Biological Cat. No. 13225-H08H) (human) (UniProt P09923); experiment: sandwich ECL (MSD), capture AbD54140ad; ST06, HIAP nominal 8.000 ng/mL
[5] = target: Human Alkaline Phosphatase/ALPI Protein (His Tag) (Sino Biological Cat. No. 13225-H08H) (human) (UniProt P09923); experiment: sandwich ECL (MSD), capture AbD54140ad; LLOQ01, HIAP nominal 0.5000 ng/mL
[6] = target: Human Alkaline Phosphatase/ALPI Protein (His Tag) (Sino Biological Cat. No. 13225-H08H) (human) (UniProt P09923); experiment: sandwich ECL (MSD), capture AbD54140ad; LC01, HIAP nominal 1.500 ng/mL
[7] = target: Human Alkaline Phosphatase/ALPI Protein (His Tag) (Sino Biological Cat. No. 13225-H08H) (human) (UniProt P09923); experiment: sandwich ECL (MSD), capture AbD54140ad; ST01, HIAP nominal 256.0 ng/mL
[8] = target: Human Alkaline Phosphatase/ALPI Protein (His Tag) (Sino Biological Cat. No. 13225-H08H) (human) (UniProt P09923); experiment: sandwich ECL (MSD), capture AbD54140ad; ULOQ02, HIAP nominal 256.0 ng/mL
[9] = target: Human Alkaline Phosphatase/ALPI Protein (His Tag) (Sino Biological Cat. No. 13225-H08H) (human) (UniProt P09923); experiment: sandwich ECL (MSD), capture AbD54140ad; ST05, HIAP nominal 16.00 ng/mL
[10] = target: Human Alkaline Phosphatase/ALPI Protein (His Tag) (Sino Biological Cat. No. 13225-H08H) (human) (UniProt P09923); experiment: sandwich ECL (MSD), capture AbD54140ad; HC02, HIAP nominal 192.0 ng/mL
[11] = target: Human Alkaline Phosphatase/ALPI Protein (His Tag) (Sino Biological Cat. No. 13225-H08H) (human) (UniProt P09923); experiment: sandwich ECL (MSD), capture AbD54140ad; ST09, HIAP nominal 1.000 ng/mL
[12] = target: Human Alkaline Phosphatase/ALPI Protein (His Tag) (Sino Biological Cat. No. 13225-H08H) (human) (UniProt P09923); experiment: sandwich ECL (MSD), capture AbD54140ad; MC02, HIAP nominal 12.00 ng/mL
[13] = target: Human Alkaline Phosphatase/ALPI Protein (His Tag) (Sino Biological Cat. No. 13225-H08H) (human) (UniProt P09923); experiment: sandwich ECL (MSD), capture AbD54140ad; MC01, HIAP nominal 12.00 ng/mL
[14] = target: Human Alkaline Phosphatase/ALPI Protein (His Tag) (Sino Biological Cat. No. 13225-H08H) (human) (UniProt P09923); experiment: sandwich ECL (MSD), capture AbD54140ad; ST02, HIAP nominal 128.0 ng/mL
[15] = target: Human Alkaline Phosphatase/ALPI Protein (His Tag) (Sino Biological Cat. No. 13225-H08H) (human) (UniProt P09923); experiment: sandwich ECL (MSD), capture AbD54140ad; HC01, HIAP nominal 192.0 ng/mL
[16] = target: Human Alkaline Phosphatase/ALPI Protein (His Tag) (Sino Biological Cat. No. 13225-H08H) (human) (UniProt P09923); experiment: sandwich ECL (MSD), capture AbD54140ad; ST10, HIAP nominal 0.5000 ng/mL
[17] = target: Human Alkaline Phosphatase/ALPI Protein (His Tag) (Sino Biological Cat. No. 13225-H08H) (human) (UniProt P09923); experiment: sandwich ECL (MSD), capture AbD54140ad; ST03, HIAP nominal 64.00 ng/mL
[18] = target: Human Alkaline Phosphatase/ALPI Protein (His Tag) (Sino Biological Cat. No. 13225-H08H) (human) (UniProt P09923); experiment: sandwich ECL (MSD), capture AbD54140ad; ULOQ01, HIAP nominal 256.0 ng/mL
[19] = target: Human Alkaline Phosphatase/ALPI Protein (His Tag) (Sino Biological Cat. No. 13225-H08H) (human) (UniProt P09923); experiment: sandwich ECL (MSD), capture AbD54140ad; ST08, HIAP nominal 2.000 ng/mL
[20] = target: Human Alkaline Phosphatase/ALPI Protein (His Tag) (Sino Biological Cat. No. 13225-H08H) (human) (UniProt P09923); experiment: sandwich ECL (MSD), capture AbD54140ad; LLOQ02, HIAP nominal 0.5000 ng/mL

Sequence of UniProt P09923 (P09923 20-503 limits assumed): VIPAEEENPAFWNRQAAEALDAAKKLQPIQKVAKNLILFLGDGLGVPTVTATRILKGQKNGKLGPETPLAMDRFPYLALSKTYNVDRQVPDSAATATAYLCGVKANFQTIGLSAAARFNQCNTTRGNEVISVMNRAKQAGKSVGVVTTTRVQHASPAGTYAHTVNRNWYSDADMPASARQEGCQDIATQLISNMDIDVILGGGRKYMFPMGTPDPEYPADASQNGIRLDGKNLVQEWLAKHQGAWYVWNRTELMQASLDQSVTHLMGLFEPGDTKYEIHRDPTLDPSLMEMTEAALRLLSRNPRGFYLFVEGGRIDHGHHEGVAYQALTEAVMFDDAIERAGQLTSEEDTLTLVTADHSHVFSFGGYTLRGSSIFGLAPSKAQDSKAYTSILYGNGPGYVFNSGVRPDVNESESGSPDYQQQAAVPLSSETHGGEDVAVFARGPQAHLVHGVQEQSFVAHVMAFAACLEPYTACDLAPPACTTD

## sulfo-tagged anti-HIAP monoclonal antibody AbD54130ad from BioRad
[1]
  Instrument Response: 9430
[2]
  Instrument Response: 27300
[3]
  Instrument Response: 186000
[4]
  Instrument Response: 54400
[5]
  Instrument Response: 3360
[6]
  Instrument Response: 9110
[7]
  Instrument Response: 504000
[8]
  Instrument Response: 528000
[9]
  Instrument Response: 101000
[10]
  Instrument Response: 456000
[11]
  Instrument Response: 7040
[12]
  Instrument Response: 68900
[13]
  Instrument Response: 64000
[14]
  Instrument Response: 416000
[15]
  Instrument Response: 444000
[16]
  Instrument Response: 3760
[17]
  Instrument Response: 301000
[18]
  Instrument Response: 508000
[19]
  Instrument Response: 13000
[20]
  Instrument Response: 3260
